In patent US20260193293A1, “PEPTIDES CAPABLE OF INHIBITING PROTEIN-PROTEIN INTERACTIONS AT GABAB1A SUBUNIT AND USES THEREOF” (UNIVERSITY OF COPENHAGEN, priority 2022, published 2026):
Non-standard residues stand in square brackets, D forms with d. NMeW = CN[C@@H](Cc1c[nH]c2ccccc12)C(=O)O; NMeT = CN[C@H](C(=O)O)[C@@H](C)O; NMeD = CN[C@@H](CC(=O)O)C(=O)O; NMeA = CN[C@@H](C)C(=O)O; Sar = CNCC(=O)O

B1: e… (peptide)
peptide: Ac-[dE]TEFIAWGPTGDED-NH2
SMILES: CC[C@H](C)[C@H](NC(=O)[C@H](Cc1ccccc1)NC(=O)[C@H](CCC(=O)O)NC(=O)[C@@H](NC(=O)[C@@H](CCC(=O)O)NC(C)=O)[C@@H](C)O)C(=O)N[C@@H](C)C(=O)N[C@@H](Cc1c[nH]c2ccccc12)C(=O)NCC(=O)N1CCC[C@H]1C(=O)N[C@H](C(=O)NCC(=O)N[C@@H](CC(=O)O)C(=O)N[C@@H](CCC(=O)O)C(=O)N[C@@H](CC(=O)O)C(N)=O)[C@@H](C)O
B2: EDDSDVWW(N-Me-G)GADTD (peptide)
peptide: Ac-EDDSDVWW[Sar]GADTD-NH2
SMILES: CC(=O)N[C@@H](CCC(=O)O)C(=O)N[C@@H](CC(=O)O)C(=O)N[C@@H](CC(=O)O)C(=O)N[C@@H](CO)C(=O)N[C@@H](CC(=O)O)C(=O)N[C@H](C(=O)N[C@@H](Cc1c[nH]c2ccccc12)C(=O)N[C@@H](Cc1c[nH]c2ccccc12)C(=O)N(C)CC(=O)NCC(=O)N[C@@H](C)C(=O)N[C@@H](CC(=O)O)C(=O)N[C@H](C(=O)N[C@@H](CC(=O)O)C(N)=O)[C@@H](C)O)C(C)C
B3: …(N-Me-A)DTD (peptide)
peptide: Ac-EDDSDVWWGG[NMeA]DTD-NH2
SMILES: CC(=O)N[C@@H](CCC(=O)O)C(=O)N[C@@H](CC(=O)O)C(=O)N[C@@H](CC(=O)O)C(=O)N[C@@H](CO)C(=O)N[C@@H](CC(=O)O)C(=O)N[C@H](C(=O)N[C@@H](Cc1c[nH]c2ccccc12)C(=O)N[C@@H](Cc1c[nH]c2ccccc12)C(=O)NCC(=O)NCC(=O)N(C)[C@@H](C)C(=O)N[C@@H](CC(=O)O)C(=O)N[C@H](C(=O)N[C@@H](CC(=O)O)C(N)=O)[C@@H](C)O)C(C)C
B4: …(N-Me-D) (peptide)
peptide: Ac-EDDSDVWWGGADT[NMeD]-NH2
SMILES: CC(=O)N[C@@H](CCC(=O)O)C(=O)N[C@@H](CC(=O)O)C(=O)N[C@@H](CC(=O)O)C(=O)N[C@@H](CO)C(=O)N[C@@H](CC(=O)O)C(=O)N[C@H](C(=O)N[C@@H](Cc1c[nH]c2ccccc12)C(=O)N[C@@H](Cc1c[nH]c2ccccc12)C(=O)NCC(=O)NCC(=O)N[C@@H](C)C(=O)N[C@@H](CC(=O)O)C(=O)N[C@H](C(=O)N(C)[C@@H](CC(=O)O)C(N)=O)[C@@H](C)O)C(C)C
B5: …aDED (peptide)
peptide: Ac-ETEFIAWGPT[dA]DED-NH2
SMILES: CC[C@H](C)[C@H](NC(=O)[C@H](Cc1ccccc1)NC(=O)[C@H](CCC(=O)O)NC(=O)[C@@H](NC(=O)[C@H](CCC(=O)O)NC(C)=O)[C@@H](C)O)C(=O)N[C@@H](C)C(=O)N[C@@H](Cc1c[nH]c2ccccc12)C(=O)NCC(=O)N1CCC[C@H]1C(=O)N[C@H](C(=O)N[C@H](C)C(=O)N[C@@H](CC(=O)O)C(=O)N[C@@H](CCC(=O)O)C(=O)N[C@@H](CC(=O)O)C(N)=O)[C@@H](C)O
B6: …(N-Me-D)TD (peptide)
peptide: Ac-EDDSDVWWGGA[NMeD]TD-NH2
SMILES: CC(=O)N[C@@H](CCC(=O)O)C(=O)N[C@@H](CC(=O)O)C(=O)N[C@@H](CC(=O)O)C(=O)N[C@@H](CO)C(=O)N[C@@H](CC(=O)O)C(=O)N[C@H](C(=O)N[C@@H](Cc1c[nH]c2ccccc12)C(=O)N[C@@H](Cc1c[nH]c2ccccc12)C(=O)NCC(=O)NCC(=O)N[C@@H](C)C(=O)N(C)[C@@H](CC(=O)O)C(=O)N[C@H](C(=O)N[C@@H](CC(=O)O)C(N)=O)[C@@H](C)O)C(C)C
B7: …(N-Me-T)D (peptide)
peptide: Ac-EDDSDVWWGGAD[NMeT]D-NH2
SMILES: CC(=O)N[C@@H](CCC(=O)O)C(=O)N[C@@H](CC(=O)O)C(=O)N[C@@H](CC(=O)O)C(=O)N[C@@H](CO)C(=O)N[C@@H](CC(=O)O)C(=O)N[C@H](C(=O)N[C@@H](Cc1c[nH]c2ccccc12)C(=O)N[C@@H](Cc1c[nH]c2ccccc12)C(=O)NCC(=O)NCC(=O)N[C@@H](C)C(=O)N[C@@H](CC(=O)O)C(=O)N(C)[C@H](C(=O)N[C@@H](CC(=O)O)C(N)=O)[C@@H](C)O)C(C)C
B8: EDDSDVW(N-Me-W)GGADTD (peptide)
peptide: Ac-EDDSDVW[NMeW]GGADTD-NH2
SMILES: CC(=O)N[C@@H](CCC(=O)O)C(=O)N[C@@H](CC(=O)O)C(=O)N[C@@H](CC(=O)O)C(=O)N[C@@H](CO)C(=O)N[C@@H](CC(=O)O)C(=O)N[C@H](C(=O)N[C@@H](Cc1c[nH]c2ccccc12)C(=O)N(C)[C@@H](Cc1c[nH]c2ccccc12)C(=O)NCC(=O)NCC(=O)N[C@@H](C)C(=O)N[C@@H](CC(=O)O)C(=O)N[C@H](C(=O)N[C@@H](CC(=O)O)C(N)=O)[C@@H](C)O)C(C)C

target: Sushi domains (SD1/2) protein of the GABAB1a (GB1a) subunit, recombinant; test: FP competition
Sequence (Q9Z0U4 29-158): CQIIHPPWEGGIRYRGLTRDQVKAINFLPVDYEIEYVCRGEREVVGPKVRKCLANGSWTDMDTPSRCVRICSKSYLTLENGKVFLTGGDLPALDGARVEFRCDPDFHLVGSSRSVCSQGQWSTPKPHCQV

| Ki | Binder |
| --- | --- |
| 0.046 µM | B1 |
| 0.034 µM | Ac-EAEFIAWGPTGDED-NH2 |
| 0.291 µM | Ac-ETEFIAWGATGDED-NH2 |
| 0.044 µM | Ac-ETEFIAWGPTGDEA-NH2 |
| 0.05 µM | Ac-ETEFIAWGPTGAED-NH2 |
| 18.9 µM | B2 |
| 0.704 µM | B3 |
| 0.044 µM | Ac-ETEFIAWGPTGD[dE]D-NH2 […eD] |
| 0.565 µM | B4 |
| 0.053 µM | Ac-ATEFIAWGPTGDED-NH2 |
| 0.054 µM | B5 |
| 0.178 µM | Ac-ET[dE]FIAWGPTGDED-NH2 [ETe…] |
| 0.029 µM | Ac-ETEFIAWGPTG[dD]ED-NH2 […dED] |
| 0.02 µM | Ac-ETEFIAWGPTADED-NH2 |
| 0.352 µM | Ac-ETEFIAWG[dP]TGDED-NH2 [ETEFIAWGpTGDED] |
| 0.403 µM | B6 |
| 0.93 µM | Ac-ETE[dF]IAWGPTGDED-NH2 [ETEf…] |
| 0.503 µM | B7 |
| 0.089 µM | Ac-ETEFIAWGPAGDED-NH2 |
| 0.038 µM | Ac-ETEFIAWGPTGDAD-NH2 |
| 0.056 µM | Ac-E[dT]EFIAWGPTGDED-NH2 [Et…] |
| 0.049 µM | Ac-ETAFIAWGPTGDED-NH2 |
| 5.4 µM | Ac-ETEFIAW[dA]PTGDED-NH2 [ETEFIAWaPTGDED] |
| 0.688 µM | Ac-ETEAIAWGPTGDED-NH2 |
| 1.38 µM | B8 |
| 0.196 µM | Ac-ETEFIAWAPTGDED-NH2 |
